We go through one substance from PMC3136475.

Test [1] has as its target S453P C-terminal peptide (CTP), His6-tagged, released from the chain by trypsin cleavage of S453P proaerolysin (Aeromonas hydrophila). In words: SPR; His-tagged proaerolysin bound to nickel charged NTA sensor chip via the His tag at the C-terminus of the CTP; trypsin added and release of the mature toxin followed; apparent Koff, by the authors only comparative. (In general: Surface plasmon resonance follows binding to a sensor surface in real time, without labels.)

Test [2] has the same target. In words: pull-down; proaerolysin processed with trypsin agarose beads at pH 8, incubated with His-bind resin preloaded with nickel (held by the His6 tag of the CTP), 4°C, 30 min, extensively washed; SDS-PAGE and Coomassie staining.

On to “aerolysin (mature toxin obtained by trypsin cleavage of proaerolysin) (from UniProt P09167 24-445) (natural protein)”, for which the koff (commonly a measure of how fast the partners let go of each other) in test [1] is 0.026 s⁻¹. Also, in test [2], the percent of the total aerolysin in the unbound fraction (released from the bead-bound CTP) turned out to be 40%.
